Results published in US20170363643A1.

What was measured:
[1] = molecular target: His-tagged recombinant human SMN protein (ProteinTech, catalog # ag14333) (human) (UniProt Q16637); assay: Erenna sandwich assay, capture MABE230; SMN 2 pg/mL, MPs 5 µg/well, Det Ab 500 ng/mL, Cap Ab/MP 25 µg/mg
[2] = molecular target: His-tagged recombinant human SMN protein (ProteinTech, catalog # ag14333) (human) (UniProt Q16637); assay: Erenna sandwich assay, capture MABE230 12.5 µg/mg MPs; Det Ab 1000 ng/mL; SMN 1.85 pg/mL
[3] = molecular target: His-tagged recombinant human SMN protein (ProteinTech, catalog # ag14333) (human) (UniProt Q16637); assay: Erenna sandwich assay, capture MABE230 12.5 µg/mg MPs; Det Ab 1000 ng/mL; SMN 0.12 pg/mL
[4] = molecular target: His-tagged recombinant human SMN protein (ProteinTech, catalog # ag14333) (human) (UniProt Q16637); assay: Erenna sandwich assay, capture MABE230; human CSF sample 4 spiked with recombinant SMN 10.0 pg/mL (endogenous SMN also present)
[5] = molecular target: His-tagged recombinant human SMN protein (ProteinTech, catalog # ag14333) (human) (UniProt Q16637); assay: Erenna sandwich assay, capture MABE230 12.5 µg/mg MPs; Det Ab 1000 ng/mL; SMN 22.22 pg/mL
[6] = molecular target: His-tagged recombinant human SMN protein (ProteinTech, catalog # ag14333) (human) (UniProt Q16637); assay: Erenna sandwich assay, capture MABE230 12.5 µg/mg MPs; Det Ab 1000 ng/mL; SMN 0.06 pg/mL
[7] = molecular target: His-tagged recombinant human SMN protein (ProteinTech, catalog # ag14333) (human) (UniProt Q16637); assay: Erenna sandwich assay, capture MABE230; SMN 2 pg/mL, MPs 10 µg/well, Det Ab 500 ng/mL, Cap Ab/MP 12.5 µg/mg
[8] = molecular target: endogenous SMN protein in human CSF (human) (UniProt Q16637); assay: Erenna sandwich assay, capture MABE230; human CSF sample 1, unspiked (endogenous SMN only)
[9] = molecular target: His-tagged recombinant human SMN protein (ProteinTech, catalog # ag14333) (human) (UniProt Q16637); assay: Erenna sandwich assay, capture MABE230; human CSF sample 1 spiked with recombinant SMN 5.0 pg/mL (endogenous SMN also present)
[10] = molecular target: His-tagged recombinant human SMN protein (ProteinTech, catalog # ag14333) (human) (UniProt Q16637); assay: Erenna sandwich assay, capture MABE230; SMN 2 pg/mL, MPs 5 µg/well, Det Ab 500 ng/mL, Cap Ab/MP 12.5 µg/mg
[11] = molecular target: His-tagged recombinant human SMN protein (ProteinTech, catalog # ag14333) (human) (UniProt Q16637); assay: Erenna sandwich assay, capture MABE230 12.5 µg/mg MPs; Det Ab 500 ng/mL; SMN 0.06 pg/mL
[12] = molecular target: His-tagged recombinant human SMN protein (ProteinTech, catalog # ag14333) (human) (UniProt Q16637); assay: Erenna sandwich assay, capture MABE230 12.5 µg/mg MPs; Det Ab 1000 ng/mL; SMN 0.46 pg/mL
[13] = molecular target: His-tagged recombinant human SMN protein (ProteinTech, catalog # ag14333) (human) (UniProt Q16637); assay: Erenna sandwich assay, capture MABE230; human CSF sample 3 spiked with recombinant SMN 5.0 pg/mL (endogenous SMN also present)
[14] = molecular target: His-tagged recombinant human SMN protein (ProteinTech, catalog # ag14333) (human) (UniProt Q16637); assay: Erenna sandwich assay, capture MABE230 12.5 µg/mg MPs; Det Ab 500 ng/mL; SMN 0.46 pg/mL
[15] = molecular target: His-tagged recombinant human SMN protein (ProteinTech, catalog # ag14333) (human) (UniProt Q16637); assay: Erenna sandwich assay, capture MABE230 12.5 µg/mg MPs; Det Ab 1000 ng/mL; SMN 66.67 pg/mL
[16] = molecular target: His-tagged recombinant human SMN protein (ProteinTech, catalog # ag14333) (human) (UniProt Q16637); assay: Erenna sandwich assay, capture MABE230; SMN 2 pg/mL, MPs 5 µg/well, Det Ab 100 ng/mL, Cap Ab/MP 12.5 µg/mg
[17] = molecular target: His-tagged recombinant human SMN protein (ProteinTech, catalog # ag14333) (human) (UniProt Q16637); assay: Erenna sandwich assay, capture MABE230; human CSF sample 2 spiked with recombinant SMN 5.0 pg/mL (endogenous SMN also present)
[18] = molecular target: His-tagged recombinant human SMN protein (ProteinTech, catalog # ag14333) (human) (UniProt Q16637); assay: Erenna sandwich assay, capture MABE230; human CSF sample 5 spiked with recombinant SMN 10.0 pg/mL (endogenous SMN also present)
[19] = molecular target: His-tagged recombinant human SMN protein (ProteinTech, catalog # ag14333) (human) (UniProt Q16637); assay: Erenna sandwich assay, capture MABE230; SMN 2 pg/mL, MPs 5 µg/well, Det Ab 1000 ng/mL, Cap Ab/MP 12.5 µg/mg
[20] = molecular target: His-tagged recombinant human SMN protein (ProteinTech, catalog # ag14333) (human) (UniProt Q16637); assay: Erenna sandwich assay, capture MABE230; SMN 2 pg/mL, MPs 10 µg/well, Det Ab 100 ng/mL, Cap Ab/MP 25 µg/mg
[21] = molecular target: His-tagged recombinant human SMN protein (ProteinTech, catalog # ag14333) (human) (UniProt Q16637); assay: BLI (BLItz), His-tagged SMN immobilised on the biosensor tip, antibody in solution

detected events (DE) (detected events) [1]: 1930
detected events (DE) (detected events) [2]: 2140
event photons (EP) (event photons) [2]: 312000
detected events (DE) (detected events) [3]: 193
event photons (EP) (event photons) [3]: 26300
detected events (DE) (detected events) [4]: 8660
detected events (DE) (detected events) [5]: 13100
event photons (EP) (event photons) [5]: 4.64e+06
detected events (DE) (detected events) [6]: 125
event photons (EP) (event photons) [6]: 15900
detected events (DE) (detected events) [7]: 2120
detected events (DE) (detected events) [8]: 330
detected events (DE) (detected events) [9]: 5070
detected events (DE) (detected events) [10]: 1950
detected events (DE) (detected events) [11]: 91
event photons (EP) (event photons) [11]: 14200
detected events (DE) (detected events) [12]: 630
event photons (EP) (event photons) [12]: 87400
detected events (DE) (detected events) [13]: 5980
detected events (DE) (detected events) [14]: 562
event photons (EP) (event photons) [14]: 77500
detected events (DE) (detected events) [15]: 11500
event photons (EP) (event photons) [15]: 1.06e+07
detected events (DE) (detected events) [16]: 753
detected events (DE) (detected events) [17]: 5310
detected events (DE) (detected events) [18]: 9440
detected events (DE) (detected events) [19]: 2590
detected events (DE) (detected events) [20]: 1130
Kd [21]: < 1 pM
koff [21]: < 1e-07 s⁻¹
kon [21]: 118000 M⁻¹ s⁻¹
Substance: ProteinTech anti-SMN2 (catalog #60154-1-Ig) (antibody)
